Results as given in publication PMC9482650, “Quantitative fragmentomics allow affinity mapping of interactomes” (Nature Communications, 2022).

T1: INTU, Q9ULD6
T1 sequence (Q9ULD6 180-273, limits assumed, looked up): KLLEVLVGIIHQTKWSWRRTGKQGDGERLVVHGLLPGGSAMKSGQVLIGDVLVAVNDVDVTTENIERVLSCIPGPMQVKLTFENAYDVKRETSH

T2: CNKSR1, Q969H4
T2 sequence (Q969H4 191-295, limits assumed, looked up): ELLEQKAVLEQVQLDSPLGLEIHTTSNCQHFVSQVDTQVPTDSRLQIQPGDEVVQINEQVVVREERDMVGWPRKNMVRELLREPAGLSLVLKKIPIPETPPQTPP

T3: RGS12, O14924
T3 sequence (O14924 17-108, limits assumed, looked up): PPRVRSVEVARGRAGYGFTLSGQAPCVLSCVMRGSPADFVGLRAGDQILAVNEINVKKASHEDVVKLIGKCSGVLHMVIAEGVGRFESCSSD


What was measured:
Test in all cases: holdup assay
Set-up in all cases: key: below the threshold = too weak to quantify, mostly under pKd 3.1 to 4
Settings in all cases: plain residues with an end cap or a label only (N-terminal biotin on a linker: ttds)
O15021 = target: O15021
INTU, Q9ULD6 = target: T1, INTU, Q9ULD6
Q9C0E4 = target: Q9C0E4
Q9H190 = target: Q9H190
Q9NR12 = target: Q9NR12
Q8TB45 = target: Q8TB45
Q8TEW0 = target: Q8TEW0
CNKSR1, Q969H4 = target: T2, CNKSR1, Q969H4
Q9NPB6 = target: Q9NPB6
LIMK1, P53667 = target: LIMK1, P53667
Chain of LIMK1, P53667 (P53667 155-268): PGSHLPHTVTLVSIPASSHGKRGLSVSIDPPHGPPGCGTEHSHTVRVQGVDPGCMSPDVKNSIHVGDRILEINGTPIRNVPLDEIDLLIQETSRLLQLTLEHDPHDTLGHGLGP

Q70Z35 = target: Q70Z35
Q96JB8 = target: Q96JB8
Q6ZWJ1 = target: Q6ZWJ1
O00560 = target: O00560
Q13368 = target: Q13368
Q9UMS6 = target: Q9UMS6
Q9UDY2 = target: Q9UDY2
O43166 = target: O43166
Q96FS4 = target: Q96FS4
Q9P227 = target: Q9P227
Q8TDM6 = target: Q8TDM6
Q9ULJ8 = target: Q9ULJ8
RGS12, O14924 = target: T3, RGS12, O14924
GIPC3, Q8TF64 = target: GIPC3, Q8TF64
Chain of GIPC3, Q8TF64 (Q8TF64 107-202): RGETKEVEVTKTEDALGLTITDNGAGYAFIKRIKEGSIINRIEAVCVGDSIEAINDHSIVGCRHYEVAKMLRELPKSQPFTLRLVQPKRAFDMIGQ

pKd (O15021)	pKd (Q9C0E4)	pKd (Q9H190)	pKd (Q9NR12)	pKd (Q8TB45)	pKd (Q8TEW0)	pKd (CNKSR1, Q969H4)	pKd (Q9NPB6)	pKd (Q70Z35)	pKd (Q96JB8)	pKd (Q6ZWJ1)	pKd (O00560)	pKd (Q13368)	pKd (Q9UMS6)	pKd (Q9UDY2)	pKd (O43166)	pKd (Q96FS4)	pKd (Q9P227)	pKd (Q8TDM6)	pKd (Q9ULJ8)	Binder	also measured
below the threshold	below the threshold	below the threshold	below the threshold	below the threshold	below the threshold	4.3	below the threshold	below the threshold	below the threshold	below the threshold	below the threshold	below the threshold	below the threshold	below the threshold	below the threshold	below the threshold	below the threshold	below the threshold	below the threshold	DPLTPSRSQL [DGKK, Q5KSL6]	pKd (INTU, Q9ULD6): below the threshold; pKd (LIMK1, P53667): 4.32; pKd (RGS12, O14924): below the threshold; pKd (GIPC3, Q8TF64): below the threshold
below the threshold	below the threshold	below the threshold	below the threshold	below the threshold	below the threshold	below the threshold	below the threshold	below the threshold	below the threshold	below the threshold	below the threshold	below the threshold	below the threshold	below the threshold	below the threshold	below the threshold	below the threshold	below the threshold	below the threshold	IQREDQETAV [DGKZ, Q13574]	pKd (RGS12, O14924): below the threshold; pKd (GIPC3, Q8TF64): below the threshold
below the threshold	below the threshold	below the threshold	below the threshold	below the threshold	below the threshold	below the threshold	below the threshold	below the threshold	below the threshold	below the threshold	below the threshold	below the threshold	below the threshold	below the threshold	below the threshold	below the threshold	below the threshold	below the threshold	below the threshold	NYWPGKETQL [SLCO1C1, Q9NYB5]	pKd (INTU, Q9ULD6): below the threshold; pKd (LIMK1, P53667): below the threshold; pKd (RGS12, O14924): below the threshold; pKd (GIPC3, Q8TF64): below the threshold
